# Reference: PMC8196010 (Communications Biology, 2021)
# No end group written: not given here.
# B1: PALS1 255-336, Q8N3R9 (protein)
# chain: KIVRIEKARDIPLGATVRNEMDSVIISRIVKGGAAEKSGLLHEGDEVLEINGIEIRGKDVNEVFDLLSDMHGTLTFVLIPSQ
# What was measured:
# [1] = biological target: recombinant human PALS1 PDZ (residues 255-336) (Homo sapiens, UniProt Q8N3R9); assay: biochemical; type: binding
# [2] = biological target: SARS-CoV-2 E protein C-terminal PBM (Severe acute respiratory syndrome coronavirus 2) (UniProt P0DTC4); conditions: cited from earlier work
# [3] = biological target: SARS-CoV-1 E protein C-terminal PBM (Severe acute respiratory syndrome coronavirus) (UniProt P59637); conditions: cited from earlier work
# [4] = biological target: SARS-CoV-2 E protein PBM (Severe acute respiratory syndrome coronavirus 2); assay: ITC
# [5] = biological target: SARS-CoV-1 E protein PBM (Severe acute respiratory syndrome coronavirus); assay: ITC
molecule,measurement,setting,value
EGVPDLLV [SARS-CoV-2 PBM],Kd,[1],22.8 ± 1.2 µM
SRVPDLLV [SARS-CoV-1 PBM],Kd,[1],29.6 ± 2.3 µM
PALS1 PDZ (from UniProt Q8N3R9),Kd,[2],40 µM
same,Kd,[3],130 µM
B1,Kd,[4],22.8 µM
same,Kd,[5],29.6 µM
